Assay [1] addresses recombinant factor H binding protein (fHbp) ID 1 (Neisseria meningitidis (strain MC58)) (UniProt Q9JXV4). As to the kind of experiment: ELISA; competitive inhibition: wells coated with 2 µg/ml fHbp ID 1; dilutions of the first mAb together with 1 µg/ml of the second mAb, 37°C, 2 h; detection with subclass-specific (IgG3 or IgG2a) secondary antibody. For orientation: In an ELISA, binding on a coated surface is turned into a signal by an enzyme label.

Assay [2] deals with murine anti-fHbp mAb JAR 5 (IgG2b). Kind of assay: ELISA. The note with it: mAb at 10 µg/ml (highest point of titration); wells coated with 2 µg/ml of wild-type or mutant fHbp; parent: est. 3.7; read off a plot.
Assay [3] deals with murine anti-fHbp mAb502 (IgG2a). As to the kind of experiment: ELISA. To be noted: wells coated with 2 µg/ml of wild-type or mutant fHbp, read off a plot.
For assay [4], the target named is murine anti-fHbp mAb JAR 1 (IgG3). Kind of assay: ELISA. To be noted: mAb at 10 µg/ml (highest point of titration); wells coated with 2 µg/ml of wild-type or mutant fHbp; parent: est. 2.4; read off a plot.
The target in assay [5] is T1, recombinant factor H binding protein (fHbp) ID 1 (Neisseria meningitidis (strain MC58), UniProt Q9JXV4).
T1 construct: also called wild-type (WT) fHbp ID 1; rfHbp; source: E. coli (pET21b), purified (Ni-NTA agarose)
Kind of assay: ELISA; wells coated with 2 µg/ml recombinant fHbp in PBS overnight at 4°C; dilutions of mAb overnight at 4°C; bound mAb detected with anti-mouse or anti-human IgG (Fc specific)-alkaline phosphatase (legend of Figure 5: anti-human kappa light chain). The note with it: both partners purified.

Assay [6] deals with T2, fHbp ID 1 on live bacteria of N. meningitidis group B strain H44/76 (Neisseria meningitidis (endogenous in …, UniProt Q9JXV4)).
T2 construct: source: endogenous, live bacteria of group B strain H44/76
Kind of assay: flow cytometry on cells; as a6, for the anti-fHbp mAb added at 2 or 50 µg/ml for 30 min at room temperature to live bacteria; read-out is bound fH. The note with it: one partner purified. On the technique in general: A flow cytometer gives signals particle by particle.

Setting [7] is: mAb at 10 µg/ml (highest point of titration), parent: est. 3.6.

Turning to “murine anti-fHbp mAb JAR 1 (IgG3) (antibody)”, in assay [1], the percent inhibition of mAb502 binding to fHbp is more than 90%.

As for “recombinant factor H binding protein (fHbp) ID 1 (from UniProt Q9JXV4) D142A”, the response in assay [2] worked out at 3.6 OD 405nm; in assay [3] (setting [7]) it was 3.5 OD 405nm; in assay [3] (mAb at about 0.08 µg/ml (point read from the log x axis, est.), parent: est. 3.7) it was 1.4 OD 405nm; in assay [4], 2.3 OD 405nm.

Take “recombinant factor H binding protein (fHbp) ID 1 (from UniProt Q9JXV4) K143A”: the response in assay [2] is 3.8 OD 405nm; in assay [3] (setting [7]), 3.6 OD 405nm; in assay [4] it was 1.3 OD 405nm.

For “recombinant factor H binding protein (fHbp) ID 1 (from UniProt Q9JXV4) R204A”, the response in assay [2] came to 3.4 OD 405nm; in assay [3] (setting [7]) it was 0.3 OD 405nm; in assay [4] it was 0.15 OD 405nm.

In the case of “recombinant factor H binding protein (fHbp) ID 1 (from UniProt Q9JXV4) R204H”, the figures for the response in assay [2], in assay [3] (setting [7]) and in assay [4] were 3.6 OD 405nm, 0.3 OD 405nm and 2.2 OD 405nm, respectively.

B1: chimeric human IgG1 mouse anti-fHbp mAb502 (antibody, V domains shown)
VH: EVQLQESGPGLAKPSQTLSLTCSVTGYSITSDFWNWIRKFPGNKLEYMGYISYSGSTDYNPSLKSRISITRDTSKNQYYLQLNSVTAEDTATYYCARYFGSSYAMDHWGQGTSVTVSS
VL: DIQMTQSPASLSASVGETVTITCRASGNIHNYLAWYQQKQGKSPQLLVYTAKTLAEGVPSRFSGSGSGTQFSLKINSLQPEDFGSYYCQHFWSTPWTFGGGTKLEIK
notes: also called chimeric mAb502; chimeric human IgG1 mAb502; source: transfected CHO cells, serum-free medium, purified from supernatant (HiTrap protein G)
In the case of B1, the binding result in assay [5] and in assay [6] was “binds” in each case.

B2: chimeric human IgG1 mouse anti-fHbp JAR 1 mAb (antibody, V domains shown)
VH: QVQLQQPGTELVMPGASVKLSCKASGYTFTNYWMHWVKQRPGQGLEWIGEIDPSDNYTKYNQKFKGKATLTVHTSSTTAYIQLSSLTSEDSAVYYCARGEVTTYLDYWGQGTTLIVSS
VL: DILMTQSPSSLTVSAGEKVTMSCKSSQSLLASDNQNNFLAWHQQKPGQSPKMLIIWASTRVSGVPDRFIGSGSGTDFTLTINSVQAEDLAVYYCQQSYSAPLTFGAGTKLELQ
notes: also called chimeric JAR 1; chimeric human IgG1 JAR 1; source: transfected CHO cells, serum-free medium, purified from supernatant (HiTrap protein G)
Consider B2, for which the binding result in assay [5] and in assay [6] was “binds” throughout.

(Values after paper PMC3312907, “Monoclonal Antibodies to Meningococcal Factor H Binding Protein with Overlapping Epitopes and Discordant Functional Activity” (PLoS ONE, 2012).)
